Ends that are not written are not given here.
Target: PICK PDZ-BAR construct
Assay: FP

PICK PDZ-BAR construct, sequence (chain, as listed by the source): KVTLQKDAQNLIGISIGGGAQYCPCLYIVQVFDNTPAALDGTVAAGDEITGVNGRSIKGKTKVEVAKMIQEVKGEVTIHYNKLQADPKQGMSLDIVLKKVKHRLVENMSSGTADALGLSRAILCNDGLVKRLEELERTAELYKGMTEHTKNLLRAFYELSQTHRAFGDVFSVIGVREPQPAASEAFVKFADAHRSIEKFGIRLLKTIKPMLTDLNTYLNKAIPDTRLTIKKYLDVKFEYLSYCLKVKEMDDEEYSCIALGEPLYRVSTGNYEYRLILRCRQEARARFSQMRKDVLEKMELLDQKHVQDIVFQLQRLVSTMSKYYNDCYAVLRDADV

B1: GluR2 peptide (competitor in the fluorescence polarization assay) (peptide)
chain: VYGIESVKI-OH
  IC50: 15.3 µM

— PMC5818740 (2018)
